Experimental findings from article PMC4850381 (2016) are described below.

Where a chain is given by its changes, count along the chain named.

One may read the Kd as the concentration at which binding is half-saturated. A low value points to a tighter complex.

Test [1] concerns the target T1, tree shrew CRHR1 extracellular domain (tree shrew).
T1 chain: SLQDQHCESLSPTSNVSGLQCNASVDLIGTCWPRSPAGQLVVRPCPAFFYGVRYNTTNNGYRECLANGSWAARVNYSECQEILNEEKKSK
Nature of the test: SPR; BIACORE3000; CRHR1-ECD immobilised on the sensor chip (about 2000 RU, 10 mM NaAc pH 4.5); CRH peptides serially diluted (5 concentrations) in PBS pH 7.4, 30 μl/min, 3 min injection, 2 min dissociation, 25 °C. In general terms: In SPR one partner is held on a chip, and binding of the other changes the refractive index at the surface.

In test [2] the target is T2, human CRHR1 extracellular domain (human).
T2 chain: T1 chain with P12L, T13A, V16I
Nature of the test: SPR.

The target of test [3] is T1, tree shrew CRHR1 extracellular domain. Nature of the test: SPR.
Test [4] addresses T2, human CRHR1 extracellular domain. The test can be described thus: SPR; BIACORE3000; CRHR1-ECD immobilised on the sensor chip (about 2000 RU, 10 mM NaAc pH 4.5); CRH peptides serially diluted (5 concentrations) in PBS pH 7.4, 30 μl/min, 3 min injection, 2 min dissociation, 25 °C.

Regarding “tree shrew corticotrophin-releasing hormone (CRH) peptide”, the Kd in test [1] amounted to 176 nM.

On to SEEPPISLDLTFHLLREVLEMARAEQLAQQAHSNRKLMEMI [tree shrew corticotrophin-releasing hormone (CRH) peptide], for which the Kd in test [2] was 2050 nM; in test [3] it was 1760 nM.

For the molecule SEEPPISLDLTFHLLREVLEMARAEQLAQQAHSNRKLMEIIGK [human corticotrophin-releasing hormone (CRH) peptide], the Kd in test [4] is 211 nM; in test [2] it was 2110 nM; in test [3], 1460 nM.
